Results on ten molecules are retold here after article PMC6348423, “Rapid Mapping of Protein Interactions Using Tag‐Transfer Photocrosslinkers” (Angewandte Chemie (International Ed. in English), 2018).

Ends that are not written are not given here. MTS‑TFMD = trifluoromethyl phenyl diazirine photocrosslinker tag, disulfide-linked to Cys via MTS; MTS‑diazirine = alkyl diazirine tag, disulfide-linked to Cys via MTS

T1: MCL-1 (human, UniProt Q07820 1-350)
T1 chain: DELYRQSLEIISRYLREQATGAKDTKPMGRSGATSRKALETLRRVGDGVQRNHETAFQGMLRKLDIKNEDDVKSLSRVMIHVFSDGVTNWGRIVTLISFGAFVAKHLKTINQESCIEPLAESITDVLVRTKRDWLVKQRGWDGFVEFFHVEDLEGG

B1: BID_(80-102) S100C tagged with MTS-TFMD (peptide)
chain: EDIIRNIARHLAQVGDSMDRCIP
modifications: Cys100 disulfide-linked to MTS-TFMD (trifluoromethyl phenyl diazirine) tag; synthetic peptide, termini not stated in main text Limits not printed in the main text (supplement); 172-327 is the usual soluble MCL-1 construct for BH3 assays, close to the PDB 2KBW construct
B2: BID_(80-102) I83C tagged with MTS-diazirine (peptide)
chain: EDIC(MTS‑diazirine)RNIARHLAQVGDSMDRSIP
B3: BID_(80-102) I86C tagged with MTS-TFMD (peptide)
peptide: EDIIRNC(MTS‑TFMD)ARHLAQVGDSMDRSIP
B4: BID_(80-102) I86C tagged with MTS-diazirine (peptide)
peptide: EDIIRNC(MTS‑diazirine)ARHLAQVGDSMDRSIP
B5: BID_(80-102) M97C tagged with MTS-diazirine (peptide)
chain: EDIIRNIARHLAQVGDSC(MTS‑diazirine)DRSIP
B6: WT BID_(80-102) (peptide)
peptide: EDIIRNIARHLAQVGDSMDRSIP
modifications: Limits not printed in the main text (supplement); 172-327 is the usual soluble MCL-1 construct for BH3 assays, close to the PDB 2KBW construct
B7: BID_(80-102) M97C tagged with MTS-TFMD (peptide)
chain: EDIIRNIARHLAQVGDSC(MTS‑TFMD)DRSIP
B8: BID_(80-102) S100C tagged with MTS-diazirine (peptide)
chain: EDIIRNIARHLAQVGDSMDRCIP
modifications: Cys100 disulfide-linked to MTS-diazirine (alkyl diazirine) tag; synthetic peptide, termini not stated in main text Limits not printed in the main text (supplement); 172-327 is the usual soluble MCL-1 construct for BH3 assays, close to the PDB 2KBW construct
B9: BID_(80-102) V93C tagged with MTS-diazirine (peptide)
peptide: EDIIRNIARHLAQC(MTS‑diazirine)GDSMDRSIP
B10: BID_(80-102) I83C tagged with MTS-TFMD (peptide)
chain: EDIC(MTS‑TFMD)RNIARHLAQVGDSMDRSIP

For the experiment, the target named is T1, MCL-1. As to the kind of experiment: FP.
Broadly, the EC50 is the midpoint of the concentration-response curve. Molecule B1 displayed a half-maximal effective concentration (EC50) of 287 nM.

In turn, B2 gave a 50% effective concentration (EC50) of 406 nM.

B3 came in with a concentration for a half-maximal effect (EC50) of 1410 nM. B4: the response was half-maximal at 5510 nM (EC50).

Molecule B5 had a 50% effective concentration (EC50) of 422 nM. As for B6, the 50% effective concentration (EC50) was 460 nM. The same measure for B7: 255 nM; for B8: 360 nM; for B9: 8750 nM. B10 gave a half-maximal effective concentration (EC50) of 338 nM.
